The record followed here is paper PMC9352680, “A comprehensive thermodynamic model for RNA binding by the Saccharomyces cerevisiae Pumilio protein PUF4”.

To fix the notation:
T1: PUF4 RNA-binding domain (Saccharomyces cerevisiae, UniProt P25339 537-888)
T1 sequence: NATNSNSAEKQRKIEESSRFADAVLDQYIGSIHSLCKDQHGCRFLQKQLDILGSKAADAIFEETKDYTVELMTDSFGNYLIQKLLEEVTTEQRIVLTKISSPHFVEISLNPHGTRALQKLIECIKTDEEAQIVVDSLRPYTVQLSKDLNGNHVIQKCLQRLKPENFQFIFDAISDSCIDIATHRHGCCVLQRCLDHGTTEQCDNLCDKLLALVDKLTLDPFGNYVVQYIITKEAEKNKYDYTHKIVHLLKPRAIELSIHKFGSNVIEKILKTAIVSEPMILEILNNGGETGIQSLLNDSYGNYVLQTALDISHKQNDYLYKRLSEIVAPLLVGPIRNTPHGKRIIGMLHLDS

B1: Id_ii_S3_P3E.3_K3.2_C3.2_[C-2T]_[T-1C]_H3.2_A3.1_F3.1_T3.2_[T9C]_[A10C] (ssRNA)
RNA: ACAAACUCUAUAUAUACCACAAAC
B2: Id_ii_S3_P3E.3_K3.2_C3.2_[C-2A]_[T-1A]_H3.2_A3.1_F3.1_T3.2_[T9C]_[A10G] (ssRNA)
RNA: ACAAACAAUAUAUAUACGACAAAC
B3: Id_ii_S3_P3E.3_K3.2_C3.2_[C-2G]_[T-1G]_H3.2_A3.1_F3.1_T3.2_[T9A]_[A10C] (ssRNA)
RNA: ACAAACGGUAUAUAUAACACAAAC
B4: Id_ii_S3_P3E.3_K3.2_C3.2_[C-2T]_[T-1C]_H3.2_A3.1_F3.1_T3.2_[A10T] (ssRNA)
RNA: ACAAACUCUAUAUAUAUUACAAAC
B5: Id_ii_S3_P3E.3_K3.2_C3.2_[C-2G]_H3.2_A3.1_F3.1_T3.2_[T9G]_[A10T] (ssRNA)
RNA: ACAAACGUUAUAUAUAGUACAAAC
B6: Id_ii_S3_P3E.3_K3.2_C3.2_[C-2A]_H3.2_A3.1_F3.1_T3.2_[A10C] (ssRNA)
RNA: ACAAACAUUAUAUAUAUCACAAAC
B7: Id_ii_S3_P3E.3_K3.2_C3.2_[C-2A]_H3.2_A3.1_F3.1_T3.2_[T9A] (ssRNA)
RNA: ACAAACAUUAUAUAUAAAACAAAC
B8: Id_ii_S3_P3E.3_K3.2_C3.2_[C-2T]_H3.2_A3.1_F3.1_T3.2_[T9A]_[A10T] (ssRNA)
RNA: ACAAACUUUAUAUAUAAUACAAAC
B9: Id_ii_S3_P3E.3_K3.2_C3.2_[C-2T]_[T-1C]_H3.2_A3.1_F3.1_T3.2_[T9A] (ssRNA)
RNA: ACAAACUCUAUAUAUAAAACAAAC
B10: Id_ii_S3_P3E.3_K3.2_C3.2_[C-2T]_[T-1C]_H3.2_A3.1_F3.1_T3.2_[T9G]_[A10C] (ssRNA)
RNA: ACAAACUCUAUAUAUAGCACAAAC
B11: Ib_S1_P5E.1_K5.1_C5.1_H5.1_A5.1_[A7C]_F5.1_[T9C]_T5.1 (ssRNA)
RNA: UCUCUUUGUAUUCUCAUCUCUU
B12: Id_ii_S3_P3E.3_K3.2_C3.2_[C-2A]_[T-1A]_H3.2_A3.1_F3.1_T3.2_[T9A]_[A10T] (ssRNA)
RNA: ACAAACAAUAUAUAUAAUACAAAC
B13: Id_ii_S3_P3E.3_K3.2_C3.2_[C-2G]_[T-1G]_H3.2_A3.1_F3.1_T3.2_[T9G] (ssRNA)
RNA: ACAAACGGUAUAUAUAGAACAAAC
B14: Id_ii_S3_P3E.3_K3.2_C3.2_[C-2T]_H3.2_A3.1_F3.1_T3.2_[T9A]_[A10C] (ssRNA)
RNA: ACAAACUUUAUAUAUAACACAAAC
B15: Id_ii_S3_P3E.3_K3.2_C3.2_[C-2G]_H3.2_A3.1_F3.1_T3.2_[T9C]_[A10C] (ssRNA)
RNA: ACAAACGUUAUAUAUACCACAAAC
B16: Id_ii_S3_P3E.3_K3.2_C3.2_[C-2G]_[T-1C]_H3.2_A3.1_F3.1_T3.2_[T9C]_[A10T] (ssRNA)
RNA: ACAAACGCUAUAUAUACUACAAAC
B17: Id_ii_S3_P3E.3_K3.2_C3.2_[C-2T]_[T-1C]_H3.2_A3.1_F3.1_T3.2_[A10C] (ssRNA)
RNA: ACAAACUCUAUAUAUAUCACAAAC
B18: Ib_S1_P5E.1_K5.1_C5.1_H5.1_A5.1_[A7G]_F5.1_[T9A]_T5.1 (ssRNA)
RNA: UCUCUUUGUAUUGUAAUCUCUU
B19: Id_ii_S3_P3E.3_K3.2_C3.2_[C-2G]_[T-1A]_H3.2_A3.1_F3.1_T3.2_[T9A]_[A10G] (ssRNA)
RNA: ACAAACGAUAUAUAUAAGACAAAC
B20: Id_ii_S3_P3E.3_K3.2_C3.2_[C-2A]_[T-1C]_H3.2_A3.1_F3.1_T3.2_[T9C] (ssRNA)
RNA: ACAAACACUAUAUAUACAACAAAC
B21: Id_ii_S3_P3E.3_K3.2_C3.2_[C-2T]_[T-1C]_H3.2_A3.1_F3.1_T3.2_[T9A]_[A10C] (ssRNA)
RNA: ACAAACUCUAUAUAUAACACAAAC
B22: Id_ii_S3_P3E.3_K3.2_C3.2_[C-2T]_H3.2_A3.1_F3.1_T3.2_[T9C] (ssRNA)
RNA: ACAAACUUUAUAUAUACAACAAAC
B23: Id_ii_S3_P3E.3_K3.2_C3.2_[C-2G]_H3.2_A3.1_F3.1_T3.2_[A10T] (ssRNA)
RNA: ACAAACGUUAUAUAUAUUACAAAC
B24: Id_ii_S3_P3E.3_K3.2_C3.2_[C-2A]_[T-1C]_H3.2_A3.1_F3.1_T3.2 (ssRNA)
RNA: ACAAACACUAUAUAUAUAACAAAC
B25: Id_ii_S3_P3E.3_K3.2_C3.2_[C-2A]_[T-1G]_H3.2_A3.1_F3.1_T3.2_[T9C]_[A10C] (ssRNA)
RNA: ACAAACAGUAUAUAUACCACAAAC
B26: Id_ii_S3_P3E.3_K3.2_C3.2_[C-2G]_[T-1A]_H3.2_A3.1_F3.1_T3.2_[T9A]_[A10T] (ssRNA)
RNA: ACAAACGAUAUAUAUAAUACAAAC
B27: Id_ii_S3_P3E.3_K3.2_C3.2_[C-2A]_H3.2_A3.1_F3.1_T3.2_[T9A]_[A10C] (ssRNA)
RNA: ACAAACAUUAUAUAUAACACAAAC
B28: Ic_S1_P5E.1_K5.1_C5.1_H5.1_A5.1_[A7T]_F5.1_[T9C]_T5.1 (ssRNA)
RNA: UCUCUUUGUAUUUUCAUCUCUU
B29: Id_ii_S3_P3E.3_K3.2_C3.2_[C-2T]_[T-1A]_H3.2_A3.1_F3.1_T3.2_[T9C] (ssRNA)
RNA: ACAAACUAUAUAUAUACAACAAAC

The target of the data set is T1, PUF4 RNA-binding domain. The data set is described as follows: Mg; RNA-MaP; 20 mM Na-HEPES pH 7.4, 30 mM KOAc, 0.75 mM MgCl2, 0.1% Tween-20, 5% glycerol, 0.1 mg/mL BSA, 2 mM DTT; 25 C; 0.0125-409.6 nM protein. Particulars: tags: N-His6-TEV cleaved; C-SNAP kept, Cy3B-labelled; label: tethered on chip by stalled RNA polymerase.
A word on the Kd: it is the equilibrium constant for the complex coming apart. Read a high Kd as lower affinity. As for B1, the Kd was 771 nM. This lies in the sub-micromolar range.
Take B2: the Kd amounted to 1290 nM. Against the preceding molecule, the Kd is about 1.7-fold higher.
B3 returned a Kd of 509 nM.
In the case of B4, binding was characterised by a dissociation constant (Kd) of 39 nM.
Molecule B5 gave a Kd of 292 nM. Compared with the last molecule, the Kd is about 7.5-fold higher.
The value for B6 was 450 nM.
The value for B7 was 868 nM; that for B8 was 149 nM.
Take B9: binding was characterised by a dissociation constant (Kd) of 932 nM.
Molecule B10 had a dissociation constant (Kd) of 767 nM.
For B11, the Kd is 29.8 nM.
B12 registered a Kd of 98.1 nM.
Consider B13, for which the Kd came out at 128 nM.
Consider B14, for which the equilibrium dissociation constant (Kd) amounted to 522 nM.
In the case of B15, the affinity, expressed as Kd, was 1700 nM.
The value for B16 was 34.2 nM.
B17 yielded a Kd of 493 nM. Compared with the last molecule, the Kd is about 14-fold higher.
Regarding B18, binding was put at a Kd of 10.6 nM.
Turning to B19, the Kd stood at 786 nM. This Kd is about 74-fold higher than that of the molecule before.
As to B20, the affinity, expressed as Kd, was 735 nM.
The value for B21 was 599 nM; that for B22 was 925 nM; that for B23 was 154 nM.
As for B24, the dissociation constant Kd came to 873 nM.
As for B25, binding was characterised by a dissociation constant (Kd) of 1920 nM.
B26 gave a Kd of 115 nM.
Regarding B27, the Kd is 708 nM.
For B28, the Kd was 32.5 nM. Against the preceding molecule, the Kd is about 22-fold lower.
Molecule B29 had a Kd of 205 nM. Against the preceding molecule, the Kd is about 6.3-fold higher.
